Laboratory results taken from paper PMC9599254, “Human Milk Oligosaccharide Utilization in Intestinal Bifidobacteria Is Governed by Global Transcriptional Regulator NagR” (mSystems, 2022).

Columns and labels:
[1] = system: NagR (Bifidobacterium longum subsp. infantis ATCC 15697 (= JCM 1222)); test: EMSA; details: no robust shift even at >500 nM NagR; 10 mM Tris-HCl pH 7.5, 50 mM KCl, 5 mM MgCl2, 2.25 mM DTT, 0.125% Tween 20, 2.5% glycerol; 1 nM probe, 0-2000 nM NagR, 60 min, room temperature; 6% gel, 0.5x …
[2] = target: T1, NagR (Bifidobacterium longum, UniProt A0ACD7UQ49); test: EMSA, disruption of NagR-DNA complex; type: binding; details: 25 nM NagR, 1 nM IRD700-labelled hmoA operator probe; pH 7.5, 50 mM KCl, 5 mM MgCl2, room temperature; effector releasing DNA
T1 construct: gene BLIJ_0896; full-length as described, N-terminal His tag, codon-optimized synthetic gene in in-house pET-49b(+), expressed in E. coli BL21(DE3), Ni-NTA purified; tag removal not mentioned
T1 sequence (A0ACD7UQ49 36-409 limits assumed): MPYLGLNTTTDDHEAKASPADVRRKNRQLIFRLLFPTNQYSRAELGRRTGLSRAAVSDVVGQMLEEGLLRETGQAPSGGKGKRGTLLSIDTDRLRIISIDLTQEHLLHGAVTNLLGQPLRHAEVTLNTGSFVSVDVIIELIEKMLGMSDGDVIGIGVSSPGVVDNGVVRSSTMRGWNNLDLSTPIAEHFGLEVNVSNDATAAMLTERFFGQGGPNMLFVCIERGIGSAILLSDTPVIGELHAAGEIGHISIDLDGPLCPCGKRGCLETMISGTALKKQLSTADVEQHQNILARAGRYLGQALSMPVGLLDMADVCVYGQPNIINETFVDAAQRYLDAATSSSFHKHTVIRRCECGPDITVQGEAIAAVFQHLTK

| EC50 [2] [µM] | Compound | K half [1] [nM] |
| --- | --- | --- |
| – | GGGCCTGATGCAAATATGTTAAGGCTGTTGACAGTGCTGGCTCCCGTAC (double strand) [hmoA6 probe] | > 500 |
| 330 ± 50 | CC(=O)N[C@H]1C(O)O[C@H](CO)[C@@H](O)[C@@H]1O (stereo partly shown) [GlcNAc] | – |
| – | ATTTCGTCGTTGAAATTGTTATGAAACTTCACCAATAAATTCCAGTGTA (double strand) [nagB_II probe] | > 500 |
| 490 ± 60 | CC(=O)N[C@H]1[C@@H](OP(=O)(O)O)O[C@H](CO)[C@@H](O)[C@@H]1O [GlcNAc-1P] | – |
